Results: patent CN113234143A

Biological target: HBV表面抗原蛋白 (HBsAg) (Hepatitis B virus)
Experiment: SPR, Biacore 3000; 7E5 captured by AHC on a CM5 chip, HBsAg as analyte in 2-fold dilutions from 40 nM to 0 nM

- Kd: 0.0215 µM
- koff: 0.000445 s⁻¹
- kon: 20700 M⁻¹ s⁻¹
B1: 抗HBsAg单克隆抗体7E5 (antibody, V domains shown)
VH: EVQLQQSGPELVKPGASVKMSCKASGYTFTARGYNWVRQSHGKSLEWIGGINCRPTAMSPEDLVKDKATLTVDKSSNTVYMEFRSLTLEDSAIYFCARRECPINQGDYWGQGTIFTVSS
VL: EIVLTQSPALMAASPGEKVTITCGCARNTIWNNVGWYQQKSETSPKPWIYWASLFGKGVPVRFSGSGSGTSYSLTISSMEAEDAATYYCQDIQENWTPFGAGTKLELK
